# pKd: −log10 of the molar value. “And” between values parts separate entries of the source, which are not always exact repeats. Identical values can stand only once. Like-named read-outs stand apart in the source and are kept apart here.
# Assays:
# Experiment in all cases: filter
# [1] = target: SARS-CoV-2 spike receptor binding domain (Wuhan) (SARS-CoV-2) (UniProt P0DTC2)
# [2] = target: SARS-CoV-2 spike S1 (Wuhan), His-tagged (SARS-CoV-2) (UniProt P0DTC2)
# [3] = target: SARS-CoV-1 spike S1 (SARS-CoV-1) (UniProt P59594)
# [4] = target: SARS-CoV-2 spike S1 (Wuhan), untagged (SARS-CoV-2) (UniProt P0DTC2)
# [5] = first 20 nt DNA, rest FANA (T in random region is faU)
# [6] = first 20 nt DNA, rest FANA (SEQ ID NO 17)
# [7] = first 20 nt DNA, rest FANA (SEQ ID NO 1)
# [8] = first 20 nt DNA, rest FANA (SEQ ID NO 3)
sequence,measurement,setting,value
AAAAGGTAGTGCTGAATTCGATTCTCGATTGATGGCATAAAAAGCATAGAATCGCAAGCAUUCGCUAUCCAGUUGGCCU [FANA-R8-7],pKd,[1]; [5],7.20
same,pKd,[2]; [5],7.51
AAAAGGTAGTGCTGAATTCGCGAGCCCGCAUGAAAAGGGGAGAUAAAAAAUAUCUGUCGAUUCGCUAUCCAGUUGGCCU [FANA-R8-9],pKd,[3],6.59
same,pKd,[4],7.53
same,pKd,[1],7.63 and 7.71
same,pKd,[2],7.83
AAAAGGTAGTGCTGAATTCGCGAGCCCGCAUGAAAAGGGGAGAUAUGCAAUAUCUGUCGAUUCGCUAUCCAGUUGGCCU [FANA-R8-22],pKd,[1]; [6],7.67
same,pKd,[2]; [6],7.88
AAAAGGTAGTGCTGAATTCGGGAGCTCGAACAGATGGGATAAAAAGCATAGCTCACCAATUUCGCUAUCCAGUUGGCCU [FANA-R8-15],pKd,[1]; [5],7.36
same,pKd,[2]; [5],7.56
AAAAGGTAGTGCTGAATTCGGTCGCGATTAACATTAAACCGCATAAAAAGGGTGGCCGGAUUCGCUAUCCAGUUGGCCU [FANA-R8-3],pKd,[1]; [5],7.17
same,pKd,[2]; [5],7.33
AAAAGGTAGTGCTGAATTCGNNNNNNNNNNNNNNNNNNNNNNNNNNNNNNNNNNNNNNNNUUCGCUAUCCAGUUGGCCU [FANA-ST],pKd,"[1]; first 20 nt DNA, rest 2'-fluoro-arabino (FANA)",5.77
AAAAGGTAGTGCTGAATTCGUCGAACUAAACCGAAUUGAUGGCAUAAAAAGCAUGUUUAGUUCGCUAUCCAGUUGGCCU [FANA-R8-5],pKd,[1]; [7],7.58
same,pKd,[2]; [7],7.78
AAAAGGTAGTGCTGAATTCGUCGAACUAAUCCGAAUUGAUGGCAUAAAAAGCAUGUUUAGUUCGCUAUCCAGUUGGCCU [FANA-R8-17],pKd,[1]; [8],7.53
same,pKd,[2]; [8],7.72
